Where a chain is given by its changes, count along the chain named.
B1: pCTD-S7S5 scFv-Fc fusion protein (scFv, V domains shown)
VH: EVQLVESGGGLVQPGGSLRLSCAASGFNIKDTYIHWVRQAPGKGLEWVARIYPTNGYTRYADSVKGRFTISADTSKNTAYLQMNSLRAEDTAVYYCSRDPWSRWAKVFDYWGQGTLVTVSS
VL: not shown
B2: pCTD-1stS2 scFv-Fc fusion protein (scFv, V domains shown)
VH: B1 VH with D99G, P100A, W101F, S102W, R103F, W104S, A105R, K106S, V107H
VL: not shown
B3: PanCTD scFv-Fc fusion protein (scFv, V domains shown)
VH: EVQLVESGGGLVQPGGSLRLSCAASGFNIKDTYIHWVRQAPGKGLEWVARIYPTNGYTRYADSVKGRFTISADTSKNTAYLQMNSLRAEDTAVYYCSRYGRRGVFDYWGQGTLVTVSS
VL: not shown
B4: pCTD-2ndS2 scFv-Fc fusion protein (scFv, V domains shown)
VH: EVQLVESGGGLVQPGGSLRLSCAASGFNIKDTYIHWVRQAPGKGLEWVARIYPTNGYTRYADSVKGRFTISADTSKNTAYLQMNSLRAEDTAVYYCSRDRAQWWEYKNAMDVWGQGTLVTVSS
VL: not shown
B5: pCTD-1stS5 scFv-Fc fusion protein (scFv, V domains shown)
VH: B4 VH with D99G, R100P, A101W, Q102P, W103G, W104S, E105H, Y106H, N108Y
VL: not shown
B6: pCTD-S7 scFv-Fc fusion protein (scFv, V domains shown)
VH: EVQLVESGGGLVQPGGSLRLSCAASGFNIKDTYIHWVRQAPGKGLEWVARIYPTNGYTRYADSVKGRFTISADTSKNTAYLQMNSLRAEDTAVYYCSRGISYPWQRGYYYAMDVWGQGTLVTVSS
VL: not shown

These binders were tested against RNA polymerase II (largest subunit, with its C-terminal domain) (Homo sapiens, UniProt P24928) (assay: far-Western, overlay or dot blot).

Binder | binding result
B1 | binds
B2 | binds
B3 | binds
B4 | binds
B5 | binds
B6 | binds

Reference: PMC5133369 (Experimental & Molecular Medicine, 2016)
